The values below are quoted from earlier work in article PMC6426597.

In general, Kd refers to the equilibrium constant for the complex coming apart.

This data set has as its target CD40 (Homo sapiens) (UniProt P25942).
UniProt P25942, sequence (P25942 21-193): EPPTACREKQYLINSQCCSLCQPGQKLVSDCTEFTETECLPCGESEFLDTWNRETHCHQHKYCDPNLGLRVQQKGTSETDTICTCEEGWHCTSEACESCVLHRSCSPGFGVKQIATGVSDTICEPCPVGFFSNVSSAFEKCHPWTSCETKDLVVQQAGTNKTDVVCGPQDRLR

In the case of TSST-1 (from UniProt P06886), the dissociation constant (Kd) is 2.7 µM.
